Results published in PMC6805999, “Molecular Mechanism of SR Protein Kinase 1 Inhibition by the Herpes Virus Protein ICP27” (mBio, 2019).
Values joined by “and” are separate entries in the source; they are usually repeats but may differ in a detail not shown here. Equal entries are not always repeated.

B1: WT ICP27: full-length wild-type HSV-1 protein ICP27 expressed from plasmid (protein)
chain: MATDIDMLIDLGLDLSDSDLDEDPPEPAESRRDDLESDSSGECSSSDEDMEDPHGEDGPEPILDAARPAVRPSRPEDPGVPSTQTPRPTERQGPNDPQPAPHSVWSRLGARRPSCSPEQHGGKVARLQPPPTKAQPARGGRRGRRRGRGRGGPGAADGLSDPRRRAPRTNRNPGGPRPGAGWTDGPGAPHGEAWRGSEQPDPPGGQRTRGVRQAPPPLMTLAIAPPPADPRAPAPERKAPAADTIDATTRLVLRSISERAAVDRISESFGRSAQVMHDPFGGQPFPAANSPWAPVLAGQGGPFDAETRRVSWETLVAHGPSLYRTFAGNPRAASTAKAMRDCVLRQENFIEALASADETLAWCKMCIHHNLPLRPQDPIIGTTAAVLDNLATRLRPFLQCYLKARGLCGLDELCSRRRLADIKDIASFVFVILARLANRVERGVAEIDYATLGVGVGEKMHFYLPGACMAGLIEILDTHRQECSSRVCELTASHIVAPPYVHGKYFYCNSLF

Legend:
SRPK1 = conditions: determined using in vitro phosphorylation assays; read-out: dissociation constant (Kd) of SRSF1 RS domain binding to SRPK1; cited from earlier work
endogenous SRPK1 = target: T1, endogenous SRPK1 (Homo sapiens, UniProt Q96SB4); assay: Coimmunoprecipitation of endogenous SRPK1 with ICP27 (anti-ICP27 IP, Western blot anti-SRPK1); assay type: cell-based; conditions: HeLa cells transfected with ICP27 plasmid, infected with 27-LacZ for 8 h
T1 construct: endogenous in cells; host or cells: HeLa cells
Text: (§1) ICP27 mutants were constructed to target sites within the RGG box that contact SRPK1 in the crystal structure. Arginines at positions 142, 144, 146, and 148 were changed to glycine (G) as single (R142G, R146G, or R148G), double (R142G R146G), and quadruple (R142G R144G R146G R148G) substitutions. The ICP27 mutant plasmids were cotransfected with a plasmid expressing green fluorescent protein (GFP)-SRPK1 and subsequently infected with ICP27 null mutant virus 27-LacZ to recapitulate the conditions of infection. At 8 h after infection, lysates were immunoprecipitated with anti-GFP antibody, and samples were analyzed by Western blotting and probed with antibody to ICP27 (Fig. 5A). […] ICP27 interaction with endogenous SRPK1 was also analyzed. Cells were transfected with WT and ICP27 mutant plasmids and infected with 27-LacZ as described above. Immunoprecipitation was performed with anti-ICP27 antibody and the blots were probed with antibody to SRPK1 (Fig. 5B). SRPK1 was only coimmunoprecipitated with WT ICP27 and was not detected with any of the mutants.
(§2) HeLa cells cotransfected with GFP-SRPK1 and WT ICP27 or RGG box mutants were infected for 8 h with 27-LacZ. Immunoprecipitation was performed using anti-GFP antibody. Western blots were probed with anti-GFP or anti-ICP27 antibody and anti-β-actin as a loading control. […] GFP fluorescence was visualized directly. […]

GFP-SRPK1 [1] = assay: Immunofluorescence: cellular localization of GFP-SRPK1; assay type: cell-based, rabbit skin fibroblasts (RSF); conditions: RSF cells cotransfected with GFP-SRPK1 and ICP27 plasmid, infected with 27-LacZ, fixed 6 h later; representative of ∼80% of cells
Experimental: HeLa cells cotransfected with GFP-SRPK1 and WT ICP27 or RGG box mutants were infected for 8 h with 27-LacZ. Immunoprecipitation was performed using anti-GFP antibody. Western blots were probed with anti-GFP or anti-ICP27 antibody and anti-β-actin as a loading control. (B) HeLa cells transfected with WT and ICP27 RGG box mutants were infected with 27-LacZ for 8 h. Immunoprecipitation was performed with anti-ICP27 antibody. Western blots were probed with anti-SRPK1 or anti-ICP27 antibody as indicated and anti-β-actin as a loading control. (C) RSF cells were transfected with GFP-SRPK1 and 16 h later were mock infected, infected with WT HSV-1 or 27-LacZ, or were cotransfected with GFP-SRPK1 and WT ICP27 or ICP27 RGG box mutants and infected 16 later with 27-LacZ. Cells were fixed 6 h later and immunofluorescent staining was performed with anti-ICP27. ICP4 antibody was used to stain the 27-LacZ sample to mark the nucleus. GFP fluorescence was visualized directly. The panels shown are representative of ∼80% of cells visualized. (D) HeLa cells were transfected with GFP-SRPK1 and WT ICP27 or RGG box mutants and were infected with 27-LacZ 16 h after transfection for 8 h. […]
In immunofluorescence experiments, rabbit skin fibroblasts (RSF) were transfected and/or infected as indicated in the legend to Fig. 5. […] GFP fluorescence was viewed directly. […]

GFP-SRPK1 [2] = target: T2, GFP-SRPK1 (Homo sapiens, UniProt Q96SB4); assay: Coimmunoprecipitation of ICP27 with GFP-SRPK1 (anti-GFP IP, Western blot anti-ICP27); assay type: cell-based; conditions: HeLa cells cotransfected with GFP-SRPK1 and ICP27 plasmid, infected with 27-LacZ for 8 h
T2 construct: expressed in transfected cells; host or cells: HeLa cells, infected with HSV-1 27-LacZ
Text: as §1, §2

[3] = test system: SRPK1 phosphorylation of SR proteins; assay: In vivo SR protein phosphorylation analysis (Western blot, antiphosphoepitope SR antibody); assay type: cell-based; conditions: HeLa cells cotransfected with GFP-SRPK1 and ICP27 plasmid, infected with 27-LacZ for 8 h
Experimental: HeLa cells cotransfected with GFP-SRPK1 and WT ICP27 or RGG box mutants were infected for 8 h with 27-LacZ. Immunoprecipitation was performed using anti-GFP antibody. Western blots were probed with anti-GFP or anti-ICP27 antibody and anti-β-actin as a loading control. (B) HeLa cells transfected with WT and ICP27 RGG box mutants were infected with 27-LacZ for 8 h. Immunoprecipitation was performed with anti-ICP27 antibody. Western blots were probed with anti-SRPK1 or anti-ICP27 antibody as indicated and anti-β-actin as a loading control. (C) RSF cells were transfected with GFP-SRPK1 and 16 h later were mock infected, infected with WT HSV-1 or 27-LacZ, or were cotransfected with GFP-SRPK1 and WT ICP27 or ICP27 RGG box mutants and infected 16 later with 27-LacZ. Cells were fixed 6 h later and immunofluorescent staining was performed with anti-ICP27. ICP4 antibody was used to stain the 27-LacZ sample to mark the nucleus. GFP fluorescence was visualized directly. The panels shown are representative of ∼80% of cells visualized. (D) HeLa cells were transfected with GFP-SRPK1 and WT ICP27 or RGG box mutants and were infected with 27-LacZ 16 h after transfection for 8 h. Portions of cell lysates were fractionated by SDS-PAGE, and Western blots were probed with antiphosphoepitope SR antibody, anti-SF2 (SRSF1), anti-ICP27 antibody, and anti-lamin B1 antibody as a loading control. […]

T2 sequence (Q96SB4 whole entry): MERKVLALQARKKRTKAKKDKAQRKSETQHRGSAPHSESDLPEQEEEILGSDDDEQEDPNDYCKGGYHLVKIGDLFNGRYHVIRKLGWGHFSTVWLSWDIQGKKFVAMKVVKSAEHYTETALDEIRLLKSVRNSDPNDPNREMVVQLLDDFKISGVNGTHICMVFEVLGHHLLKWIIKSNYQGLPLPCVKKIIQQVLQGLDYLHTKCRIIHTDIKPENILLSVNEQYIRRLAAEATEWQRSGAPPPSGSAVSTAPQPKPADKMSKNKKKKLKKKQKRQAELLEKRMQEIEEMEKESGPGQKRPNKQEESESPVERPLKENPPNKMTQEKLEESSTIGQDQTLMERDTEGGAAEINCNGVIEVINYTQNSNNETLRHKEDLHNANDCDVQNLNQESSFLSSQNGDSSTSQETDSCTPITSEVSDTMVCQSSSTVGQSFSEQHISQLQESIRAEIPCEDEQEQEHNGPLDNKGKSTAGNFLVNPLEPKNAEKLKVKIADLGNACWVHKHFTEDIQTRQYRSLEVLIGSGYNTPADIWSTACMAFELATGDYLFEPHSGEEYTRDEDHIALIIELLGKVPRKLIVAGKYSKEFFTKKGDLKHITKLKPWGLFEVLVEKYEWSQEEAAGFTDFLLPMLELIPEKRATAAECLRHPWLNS
T1 sequence (Q96SB4 whole entry): as above

Molecule	Kd (SRPK1)	coimmunoprecipitation of endogenous SRPK1 with ICP27 (endogenous SRPK1)	cellular localization of SRPK1 (GFP-SRPK1 [1])	coimmunoprecipitation of ICP27 with GFP-SRPK1 (GFP-SRPK1 [2])	level of phosphorylation for SRp40 (SRSF5) reduced [3]	phosphorylation of SRp30 (SRSF1) reduced [3]
SRSF1: prototype SR protein, native cellular substrate of SRPK1	~50 nM and 50 nM					
B1		coimmunoprecipitated	prominently nuclear	efficiently coimmunoprecipitated	reduced	reduced
